Assay results as given in doi:10.1101/283192.
Substitutions are numbered along the chain they refer to. Names may count otherwise. Each block holds one binder with its values, some of them ahead of it.

How the values were obtained:
Details in all cases: remark: other sources report otherwise
[1] = molecular target: T1, CHIP (carboxyl terminus of heat shock 70-interacting protein), wild type, His-tagged recombinant (human), Q9UNE7; test: SEC-MALS
T1 chain: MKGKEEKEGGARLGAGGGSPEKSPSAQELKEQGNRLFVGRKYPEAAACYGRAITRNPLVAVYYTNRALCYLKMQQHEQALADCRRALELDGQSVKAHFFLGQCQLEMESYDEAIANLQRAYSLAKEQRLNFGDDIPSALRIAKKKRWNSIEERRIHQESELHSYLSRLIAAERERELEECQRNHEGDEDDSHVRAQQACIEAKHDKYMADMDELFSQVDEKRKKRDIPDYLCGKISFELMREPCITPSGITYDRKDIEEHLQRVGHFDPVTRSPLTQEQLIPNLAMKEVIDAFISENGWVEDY

[2] = molecular target: T2, myc-CHIP wild type (pcDNA3-mycCHIP) (human), Q9UNE7; test: native gel or EMSA
T2 chain: T1 chain

[3] = molecular target: T3, CHIP-K30A, His-tagged recombinant (human), Q9UNE7; test: SEC-MALS
T3 chain: T1 chain with K30A

[4] = molecular target: T4, myc-CHIP-K30A (pcDNA3-mycCHIP-K30A) (human), Q9UNE7; test: native gel or EMSA
T4 chain: T1 chain with K30A

B1: CHIP (carboxyl terminus of heat shock 70-interacting protein), wild type, His-tagged recombinant, Q9UNE7 1-303 (natural protein)
chain: T1 chain
stoichiometry N [1]: 2

B3: CHIP-K30A, His-tagged recombinant, Q9UNE7 1-303 (natural protein)
chain: T1 chain with K30A
stoichiometry N [3]: 2

Second part, the binder after the results:

stoichiometry N [2]: 2
B2: myc-CHIP wild type (pcDNA3-mycCHIP), Q9UNE7 1-303 (natural protein)
chain: T1 chain

stoichiometry N [4]: 2
B4: myc-CHIP-K30A (pcDNA3-mycCHIP-K30A), Q9UNE7 1-303 (natural protein)
chain: T1 chain with K30A
